Source: publication PMC6317261, “Functional dissection of the developmentally restricted BEN domain chromatin boundary factor Insensitive” (Epigenetics & Chromatin, 2019)

How the values were obtained:
[1] = molecular target: GST; experiment: cross-linking; controls GST and Thioredoxin; the cross-linker is not named in the legend
[2] = molecular target: the molecule itself; experiment: cross-linking; glutaraldehyde, 10 min at room temperature in PBS with 1 mM beta-mercaptoethanol; protein adjusted to 10 uM; SDS-PAGE, silver staining
[3] = molecular target: T1, HS:C-BEN (UniProt Q8SYK5 210-376); experiment: EMSA; two shifts; slower one predominates at high protein; EMSA: 25 mM Tris-HCl pH 7.4, 100 mM KCl, 1 mM EDTA, 0.1 mM DTT, 0.1 mM PMSF, 0.03 mg/mL BSA, 10% glycerol, 0.5% Triton X-100, 0.25 mg/mL poly(dI-dC), 30 min room temperature; conditions: protein: recombinant; tags: N-terminal His-Sumo; chain copies: 2; label: 5'-32P; blunt
T1 sequence: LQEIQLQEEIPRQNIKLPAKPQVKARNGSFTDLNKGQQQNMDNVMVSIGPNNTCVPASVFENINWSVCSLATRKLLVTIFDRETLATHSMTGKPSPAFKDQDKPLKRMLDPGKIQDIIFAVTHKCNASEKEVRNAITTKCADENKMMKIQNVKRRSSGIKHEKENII

[4] = molecular target: T2, HT:F-Insv (UniProt Q8SYK5 1-376); experiment: EMSA; 0.0005-0.5 uM protein; EMSA: 25 mM Tris-HCl pH 7.4, 100 mM KCl, 1 mM EDTA, 0.1 mM DTT, 0.1 mM PMSF, 0.03 mg/mL BSA, 10% glycerol, 0.5% Triton X-100, 0.25 mg/mL poly(dI-dC), 30 min room temperature; conditions: protein: recombinant; tags: N-terminal His-Thioredoxin; label: 5'-32P; blunt
T2 sequence: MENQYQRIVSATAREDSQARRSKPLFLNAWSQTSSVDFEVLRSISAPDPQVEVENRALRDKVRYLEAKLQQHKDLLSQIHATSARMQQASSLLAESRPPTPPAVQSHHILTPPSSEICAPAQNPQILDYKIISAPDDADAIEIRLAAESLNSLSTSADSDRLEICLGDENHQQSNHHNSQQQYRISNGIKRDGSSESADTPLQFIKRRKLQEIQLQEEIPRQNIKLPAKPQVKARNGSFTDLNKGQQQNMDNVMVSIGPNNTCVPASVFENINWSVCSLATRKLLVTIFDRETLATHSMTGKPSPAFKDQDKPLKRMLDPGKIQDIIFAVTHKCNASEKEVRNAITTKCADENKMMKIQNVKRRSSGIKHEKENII

[5] = molecular target: T3, HS:F-Insv (UniProt Q8SYK5 1-376); experiment: EMSA; gel-filtration fractions ~420-120 kDa; early aggregate fractions give no shift; EMSA: 25 mM Tris-HCl pH 7.4, 100 mM KCl, 1 mM EDTA, 0.1 mM DTT, 0.1 mM PMSF, 0.03 mg/mL BSA, 10% glycerol, 0.5% Triton X-100, 0.25 mg/mL poly(dI-dC), 30 min room temperature; conditions: protein: recombinant; tags: N-terminal His-Sumo; label: 5'-32P; blunt
T3 sequence: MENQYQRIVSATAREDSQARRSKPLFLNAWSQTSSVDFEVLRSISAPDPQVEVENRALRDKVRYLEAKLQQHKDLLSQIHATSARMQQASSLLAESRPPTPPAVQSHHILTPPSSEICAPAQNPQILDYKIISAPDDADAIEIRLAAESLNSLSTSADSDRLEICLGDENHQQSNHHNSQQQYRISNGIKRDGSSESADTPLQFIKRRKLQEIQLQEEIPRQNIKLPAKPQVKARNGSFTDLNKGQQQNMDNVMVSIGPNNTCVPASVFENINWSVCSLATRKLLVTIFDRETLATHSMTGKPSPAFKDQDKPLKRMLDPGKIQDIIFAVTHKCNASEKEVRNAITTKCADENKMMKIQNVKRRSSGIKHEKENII

[6] = molecular target: T4, GST:N-terminal 213 aa (UniProt Q8SYK5 1-213); experiment: EMSA; data not shown; EMSA: 25 mM Tris-HCl pH 7.4, 100 mM KCl, 1 mM EDTA, 0.1 mM DTT, 0.1 mM PMSF, 0.03 mg/mL BSA, 10% glycerol, 0.5% Triton X-100, 0.25 mg/mL poly(dI-dC), 30 min room temperature; conditions: protein: recombinant; tags: N-terminal GST; label: 5'-32P; blunt
T4 sequence: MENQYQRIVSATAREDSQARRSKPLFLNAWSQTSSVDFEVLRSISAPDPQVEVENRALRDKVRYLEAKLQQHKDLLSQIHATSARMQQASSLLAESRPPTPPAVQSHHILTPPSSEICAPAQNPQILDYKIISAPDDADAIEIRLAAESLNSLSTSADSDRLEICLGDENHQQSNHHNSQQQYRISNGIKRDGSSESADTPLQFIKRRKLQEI

[7] = molecular target: T5, GST:F-Insv (UniProt Q8SYK5 1-376); experiment: EMSA; closely spaced doublet; EMSA: 25 mM Tris-HCl pH 7.4, 100 mM KCl, 1 mM EDTA, 0.1 mM DTT, 0.1 mM PMSF, 0.03 mg/mL BSA, 10% glycerol, 0.5% Triton X-100, 0.25 mg/mL poly(dI-dC), 30 min room temperature; conditions: protein: recombinant; tags: N-terminal GST; label: 5'-32P; blunt
T5 sequence: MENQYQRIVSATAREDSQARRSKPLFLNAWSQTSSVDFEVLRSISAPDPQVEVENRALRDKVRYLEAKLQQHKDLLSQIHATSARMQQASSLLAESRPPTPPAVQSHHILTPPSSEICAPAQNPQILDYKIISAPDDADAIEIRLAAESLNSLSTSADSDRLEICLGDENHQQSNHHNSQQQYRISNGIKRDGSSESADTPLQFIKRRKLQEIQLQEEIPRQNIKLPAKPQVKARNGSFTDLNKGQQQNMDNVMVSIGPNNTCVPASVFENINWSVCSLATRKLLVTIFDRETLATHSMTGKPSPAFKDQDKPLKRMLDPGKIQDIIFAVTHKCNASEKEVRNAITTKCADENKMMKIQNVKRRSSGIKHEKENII

[8] = molecular target: T6, GST:C-BEN (UniProt Q8SYK5 210-376); experiment: EMSA; EMSA: 25 mM Tris-HCl pH 7.4, 100 mM KCl, 1 mM EDTA, 0.1 mM DTT, 0.1 mM PMSF, 0.03 mg/mL BSA, 10% glycerol, 0.5% Triton X-100, 0.25 mg/mL poly(dI-dC), 30 min room temperature; conditions: protein: recombinant; tags: N-terminal GST; chain copies: 2; label: 5'-32P; blunt
T6 sequence: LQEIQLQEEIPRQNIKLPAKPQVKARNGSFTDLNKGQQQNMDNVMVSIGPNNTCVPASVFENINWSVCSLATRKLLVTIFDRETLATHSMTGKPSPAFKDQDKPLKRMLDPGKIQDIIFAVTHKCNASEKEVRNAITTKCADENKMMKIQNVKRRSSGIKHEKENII

[9] = molecular target: T7, GST:BEN (UniProt Q8SYK5 258-356); experiment: as above; conditions: protein: recombinant; tags: N-terminal GST; chain copies: 2; label: 5'-32P; blunt
T7 sequence: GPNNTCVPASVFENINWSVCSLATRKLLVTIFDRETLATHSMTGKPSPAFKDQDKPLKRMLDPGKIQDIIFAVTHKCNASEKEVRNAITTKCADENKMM

## GST (natural protein)
[1]
  stoichiometry N: 2

B1: HT:N1-111 (domain or fragment, Drosophila, UniProt Q8SYK5 1-111, looked up)
chain: MENQYQRIVSATAREDSQARRSKPLFLNAWSQTSSVDFEVLRSISAPDPQVEVENRALRDKVRYLEAKLQQHKDLLSQIHATSARMQQASSLLAESRPPTPPAVQSHHILT
notes: Insensitive (Insv), Drosophila, residues 1-111: includes the predicted coiled-coil domain (about 51-104); source: E. coli, purified (Ni-NTA Agarose); not shown: His6, N-terminal, kept; Thioredoxin, N-terminal, kept
[2]
  stoichiometry N: 4

B2: HT:N1-267 (domain or fragment, Drosophila, UniProt Q8SYK5 1-267, looked up)
chain: MENQYQRIVSATAREDSQARRSKPLFLNAWSQTSSVDFEVLRSISAPDPQVEVENRALRDKVRYLEAKLQQHKDLLSQIHATSARMQQASSLLAESRPPTPPAVQSHHILTPPSSEICAPAQNPQILDYKIISAPDDADAIEIRLAAESLNSLSTSADSDRLEICLGDENHQQSNHHNSQQQYRISNGIKRDGSSESADTPLQFIKRRKLQEIQLQEEIPRQNIKLPAKPQVKARNGSFTDLNKGQQQNMDNVMVSIGPNNTCVPAS
notes: source: E. coli, purified (Ni-NTA Agarose); not shown: His6, N-terminal, kept; Thioredoxin, N-terminal, kept
[2]
  stoichiometry N: 4

B3: P3 (dsDNA)
DNA 1: CCACCGCAAAATCCAATTGGAAGAGAGCGACT
DNA 2: AGTCGCTCTCTTCCAATTGGATTTTGCGGTGG
[3]
  binding result: binds
[4]
  binding result: binds
[5]
  binding result: binds
[6]
  binding result: no binding
[7]
  binding result: binds
[8]
  binding result: binds
[9]
  binding result: binds
